This passage reports inhibition of the adhesion of the cells on fibrinogen and inhibition of the adhesion of the cells on vitronectin results from patent US20040171549A1.

For this test, the target named is integrin alpha v beta 3 present at the surface of the endothelial cells (CPAE) (bovine (calf pulmonary artery endothelial cells)) (UniProt P80746). Put plainly: cell-based or functional assay.
UniProt P80746, sequence (P80746 31-1048): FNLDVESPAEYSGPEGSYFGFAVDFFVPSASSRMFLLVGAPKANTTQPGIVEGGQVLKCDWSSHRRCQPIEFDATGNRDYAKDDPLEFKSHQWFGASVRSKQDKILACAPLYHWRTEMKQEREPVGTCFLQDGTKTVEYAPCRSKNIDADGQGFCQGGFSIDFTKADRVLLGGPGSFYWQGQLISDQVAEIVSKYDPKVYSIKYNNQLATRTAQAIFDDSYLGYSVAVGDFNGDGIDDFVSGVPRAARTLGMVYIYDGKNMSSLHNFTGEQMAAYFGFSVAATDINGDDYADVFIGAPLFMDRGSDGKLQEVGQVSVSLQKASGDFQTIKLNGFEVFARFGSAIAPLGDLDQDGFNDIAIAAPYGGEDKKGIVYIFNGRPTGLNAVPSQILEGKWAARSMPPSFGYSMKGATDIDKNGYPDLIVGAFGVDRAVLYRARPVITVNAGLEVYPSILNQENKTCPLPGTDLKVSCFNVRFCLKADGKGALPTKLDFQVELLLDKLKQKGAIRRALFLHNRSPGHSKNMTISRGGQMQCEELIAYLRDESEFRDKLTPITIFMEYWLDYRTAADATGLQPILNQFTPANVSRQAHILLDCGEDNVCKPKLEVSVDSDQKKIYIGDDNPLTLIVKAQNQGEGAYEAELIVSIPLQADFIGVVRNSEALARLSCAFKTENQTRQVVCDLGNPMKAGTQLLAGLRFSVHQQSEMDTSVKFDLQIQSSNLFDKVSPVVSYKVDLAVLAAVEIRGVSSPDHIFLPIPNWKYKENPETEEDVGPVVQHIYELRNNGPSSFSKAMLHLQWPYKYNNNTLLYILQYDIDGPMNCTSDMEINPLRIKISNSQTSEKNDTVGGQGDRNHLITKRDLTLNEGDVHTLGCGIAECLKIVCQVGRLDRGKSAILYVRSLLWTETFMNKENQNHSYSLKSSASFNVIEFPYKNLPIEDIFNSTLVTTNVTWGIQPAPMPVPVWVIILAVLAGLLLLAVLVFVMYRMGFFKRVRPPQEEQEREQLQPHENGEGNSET

On to “1.4-kDa fragment of AMEP constituted of 12 amino acids with the sequence RGDC (peptide)”, for which the inhibition of the adhesion of the cells on fibrinogen amounted to 50% and the inhibition of the adhesion of the cells on vitronectin was found to be 49%.
